Measurements: patent US20020147146A1
Non-standard residues stand in square brackets, D forms with d. No end group written: not given here. pS = N[C@@H](COP(=O)(O)O)C(=O)O

Key:
[1] = system: T1, peptide #4 ILSRRPEYR (9ECREB)
T1 sequence: ILSRRPEYR

[2] = system: T2, peptide #3 ILSRRPS(p)YR (p9CREB)
T2 sequence: ILSRRPSYR

[3] = system: T3, peptide #1 KRREILSRRPS(p)YR (derived from CREB protein)
T3 sequence: KRREILSRRPSYR

[4] = system: T4, peptide #2 KRREILSRRPSYR (non-phosphorylated CREB peptide)
T4 sequence: KRREILSRRPSYR

[5] = system: T5, 9CREB ILSRRPSYR (non-phosphorylated peptide)
T5 sequence: ILSRRPSYR

[6] = target: purified recombinant rabbit GSK-3 (glycogen synthase kinase-3) (rabbit); assay: cell-based or functional assay
[7] = target: purified recombinant rabbit GSK-3 (glycogen synthase kinase-3) (rabbit); assay: in vitro kinase assay of purified GSK-3 with PGS-1 substrate and 32P-ATP, Lineweaver-Burk analysis (competitive inhibition)

purified recombinant rabbit GSK-3 (glycogen synthase kinase-3)
time course of peptide phosphorylation by GSK-3 [1]: 9CREB and 9ECREB completely failed to be phosphorylated by GSK-3 | kinetic property (phosphorylation by GSK-3) [2]: A substrate | time course of peptide phosphorylation by GSK-3 [2]: only the phosphorylated peptide, p9CREB, was a substrate for GSK-3 | kinetic property (phosphorylation by GSK-3) [3]: A substrate | kinetic property (phosphorylation by GSK-3) [4]: Not a substrate | time course of peptide phosphorylation by GSK-3 [5]: 9CREB and 9ECREB completely failed to be phosphorylated by GSK-3

B1: peptide #5 …(p)YR (peptide)
peptide: KRREILARRP[pS]YR
IC50, inhibition of GSK-3 (in vitro kinase assay) [6]: 330 µM | IC50, inhibition of GSK-3 phosphorylation of PGS-1 substrate (32P incorporation) [6]: 150 µM

B2: peptide #8 …(p)P (peptide)
peptide: KEAPPAPPQ[pS]P
Ki [7]: 76 µM | IC50, inhibition of GSK-3 (in vitro kinase assay) [6]: 190 µM

B3: peptide #7 …(p)P (patterned after HSF-1 protein) (peptide)
peptide: KEEPPAPPQ[pS]P
IC50, inhibition of GSK-3 (in vitro kinase assay) [6]: 250 µM
